Measurements taken from patent publication US20210388087A1 (Chugai, published 2021).
Where a chain is given by its changes, count along the chain named. Values belong to the binder of their own block, whether it stands above or below them.

Target: T1, Human CD137 ECD (human)
T1 construct: entry includes C-terminal His-tag and biotin acceptor peptide; also called human CD137 extracellular domain; 4-1BB
Assay: Biacore SPR, vs parent H183/L072

T1 sequence (chain, as listed by the source limits assumed): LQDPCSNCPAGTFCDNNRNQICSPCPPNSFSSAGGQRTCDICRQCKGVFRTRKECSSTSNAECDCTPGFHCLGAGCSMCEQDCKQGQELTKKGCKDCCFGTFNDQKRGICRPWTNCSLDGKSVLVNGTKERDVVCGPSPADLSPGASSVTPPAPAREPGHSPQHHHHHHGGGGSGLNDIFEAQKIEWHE

fold change of affinity: 0.6 fold
B1: H183/L072 VL R29Y (antibody, name in Kabat numbering, V domains shown)
VH: QVQLVESGGGLVQPGRSLRLSCAASGFTFSNAWMHWVRQAPGKGLEWVAQIKDKGNAYAAYYAPSVKGRFTISRDDSKNSIYLQMNSLKTEDTAVYYCHYVHYASASTVLPAFGVDAWGQGTTVTVSS
VL: DIVMTQSPLSLPVTPGEPASISCQASQELVHMNYNTYLHWYQQKPGQAPRLLIYKVSNRFPGVPDRFSGSGSGTDFTLKISRVEAEDVGVYYCAQGTSVPFTFGQGTKLEIK
notes: Dual-Ig

fold change of affinity: 0.9 fold
B2: H183/L072 VL R54G (antibody, name in Kabat numbering, V domains shown)
VH: B1 VH
VL: B1 VL with Y34R, R59G
notes: Dual-Ig

fold change of affinity: 0.3 fold
B3: H183/L072 VL S26R (antibody, name in Kabat numbering, V domains shown)
VH: B1 VH
VL: B1 VL with S26R, Y34R
notes: Dual-Ig

fold change of affinity: 1 fold
B4: H183/L072 VL R54K (antibody, name in Kabat numbering, V domains shown)
VH: B1 VH
VL: B1 VL with Y34R, R59K
notes: Dual-Ig

fold change of affinity: 0.7 fold
B5: H183/L072 VL S26Q (antibody, name in Kabat numbering, V domains shown)
VH: B1 VH
VL: B1 VL with S26Q, Y34R
notes: Dual-Ig

fold change of affinity: 0.4 fold
B6: H183/L072 VL R54W (antibody, name in Kabat numbering, V domains shown)
VH: B1 VH
VL: B1 VL with Y34R, R59W
notes: Dual-Ig

fold change of affinity: 0.7 fold
B7: H183/L072 VL S26N (antibody, name in Kabat numbering, V domains shown)
VH: B1 VH
VL: B1 VL with S26N, Y34R
notes: Dual-Ig

fold change of affinity: 0.6 fold
B8: H183/L072 VL R54H (antibody, name in Kabat numbering, V domains shown)
VH: B1 VH
VL: B1 VL with Y34R, R59H
notes: Dual-Ig

fold change of affinity: 0.2 fold
B9: H183/L072 VL S26H (antibody, name in Kabat numbering, V domains shown)
VH: B1 VH
VL: B1 VL with S26H, Y34R
notes: Dual-Ig

fold change of affinity: 0.2 fold
B10: H183/L072 VL S26F (antibody, name in Kabat numbering, V domains shown)
VH: B1 VH
VL: B1 VL with S26F, Y34R
notes: Dual-Ig

fold change of affinity: 1.3 fold
B11: H183/L072 VL R54V (antibody, name in Kabat numbering, V domains shown)
VH: B1 VH
VL: B1 VL with Y34R, R59V
notes: Dual-Ig

fold change of affinity: 0.9 fold
B12: H183/L072 VL S26G (antibody, name in Kabat numbering, V domains shown)
VH: B1 VH
VL: B1 VL with S26G, Y34R
notes: Dual-Ig

fold change of affinity: 0.6 fold
B13: H183/L072 VL S26M (antibody, name in Kabat numbering, V domains shown)
VH: B1 VH
VL: B1 VL with S26M, Y34R
notes: Dual-Ig

fold change of affinity: 0.3 fold
B14: H183/L072 VL R54D (antibody, name in Kabat numbering, V domains shown)
VH: B1 VH
VL: B1 VL with Y34R, R59D
notes: Dual-Ig

fold change of affinity: 0.2 fold
B15: H183/L072 VL S26I (antibody, name in Kabat numbering, V domains shown)
VH: B1 VH
VL: B1 VL with S26I, Y34R
notes: Dual-Ig

fold change of affinity: 1 fold
B16: H183/L072 VL S26T (antibody, name in Kabat numbering, V domains shown)
VH: B1 VH
VL: B1 VL with S26T, Y34R
notes: Dual-Ig

fold change of affinity: 0.9 fold
B17: H183/L072 VL R54P (antibody, name in Kabat numbering, V domains shown)
VH: B1 VH
VL: B1 VL with Y34R, R59P
notes: Dual-Ig

fold change of affinity: 0.1 fold
B18: H183/L072 VL S26W (antibody, name in Kabat numbering, V domains shown)
VH: B1 VH
VL: B1 VL with S26W, Y34R
notes: Dual-Ig

fold change of affinity: 0.5 fold
B19: H183/L072 VL S26K (antibody, name in Kabat numbering, V domains shown)
VH: B1 VH
VL: B1 VL with S26K, Y34R
notes: Dual-Ig

fold change of affinity: 0.3 fold
B20: H183/L072 VL S26L (antibody, name in Kabat numbering, V domains shown)
VH: B1 VH
VL: B1 VL with S26L, Y34R
notes: Dual-Ig

fold change of affinity: 0.3 fold
B21: H183/L072 VL R54F (antibody, name in Kabat numbering, V domains shown)
VH: B1 VH
VL: B1 VL with Y34R, R59F
notes: Dual-Ig

fold change of affinity: 0.2 fold
B22: H183/L072 VL S26P (antibody, name in Kabat numbering, V domains shown)
VH: B1 VH
VL: B1 VL with S26P, Y34R
notes: Dual-Ig

fold change of affinity: 2.5 fold
B23: H183/L072 VL R54T (antibody, name in Kabat numbering, V domains shown)
VH: B1 VH
VL: B1 VL with Y34R, R59T
notes: Dual-Ig

fold change of affinity: 1 fold
B24: H183/L072 VL R54I (antibody, name in Kabat numbering, V domains shown)
VH: B1 VH
VL: B1 VL with Y34R, R59I
notes: Dual-Ig

fold change of affinity: 0.6 fold
B25: H183/L072 VL R54E (antibody, name in Kabat numbering, V domains shown)
VH: B1 VH
VL: B1 VL with Y34R, R59E
notes: Dual-Ig

fold change of affinity: 0.8 fold
B26: H183/L072 VL R54Q (antibody, name in Kabat numbering, V domains shown)
VH: B1 VH
VL: B1 VL with Y34R, R59Q
notes: Dual-Ig

fold change of affinity: 0.8 fold
B27: H183/L072 VL S26E (antibody, name in Kabat numbering, V domains shown)
VH: B1 VH
VL: B1 VL with S26E, Y34R
notes: Dual-Ig

fold change of affinity: 0.3 fold
B28: H183/L072 VL S26V (antibody, name in Kabat numbering, V domains shown)
VH: B1 VH
VL: B1 VL with S26V, Y34R
notes: Dual-Ig

fold change of affinity: 0.9 fold
B29: H183/L072 VL R54L (antibody, name in Kabat numbering, V domains shown)
VH: B1 VH
VL: B1 VL with Y34R, R59L
notes: Dual-Ig

fold change of affinity: 0.9 fold
B30: H183/L072 VL R54A (antibody, name in Kabat numbering, V domains shown)
VH: B1 VH
VL: B1 VL with Y34R, R59A
notes: Dual-Ig

fold change of affinity: 0.8 fold
B31: H183/L072 VL S26D (antibody, name in Kabat numbering, V domains shown)
VH: B1 VH
VL: B1 VL with S26D, Y34R
notes: Dual-Ig

fold change of affinity: 0.9 fold
B32: H183/L072 VL R54S (antibody, name in Kabat numbering, V domains shown)
VH: B1 VH
VL: B1 VL with Y34R, R59S
notes: Dual-Ig

fold change of affinity: 0.5 fold
B33: H183/L072 VL R54M (antibody, name in Kabat numbering, V domains shown)
VH: B1 VH
VL: B1 VL with Y34R, R59M
notes: Dual-Ig
